Test results reported in a protein production outcome set (Wang et al. 2014).

Experiment: label from the status in PepcDB records

Sequence	protein production
MSLSNIETVPASIEMKPNPTITVFERSPDGGRGLARDMPVRWALEEVGRPYHVRRLSFEAMKEASHLAYQPFGQIPSYEQGDLILFESGAIVMHIAQHHSGLLPEDQLRRARTVAWMFAALNTIEPSILNFTTVWLFERNEPWHEARLARTKEQLLKRLDELSAWLGDREWLEGSFSAADILMICVLRRLESSGILKDYGNLLAYVERGKARPAFKRAFDAQLAVFTAASKNEGHHHHHH	not failed
MKLSQQSLSIIESAIQKAVGKYVCNCEQTVVTDIHLQPDQTSGQLNIYNDDDEELANVMVEEWATYDGDDFLENIEPGLRSILCRMKDAGDFDKVTILKPYSFVLVDEDKETVTELLLVDDDTMLVNDELLKGLDKELDDFLKELLEK	failed
MAPVLENRRARHDYEILETYEAGIALKGTEVKSLRAGKVDFTGSFARFEDGELYLENLYIAPYEKGSYANVDPRRKRKLLLHKHELRRLLGKVEQKGLTLVPLKIYFNERGYAKVLLGLARGKKAYEKRREDKKEAVRRALEEL	not failed
MLTVTFTVSNTGDRAGAAVPQVYPGFPNTTIDRCVRELKAFRRVELEPGQRQTVTVALTRRDLSYWDILPHPLRSYAVGSILEHHHHHH	failed
FIQIKPGYDYPIISALRAIISGNADAVPDEVGGVSKEKLVELAETMKNAKYGAVLYGLGVTQSRGRDRNVENAVKLIQLLNRHTRWVIWPMRGHYNVVGAGEVPAWEVGYQYAIDFSRGYPR	failed
MAKETVCVTGANGFIGSWIIRTLIEKGYTKIHASIYPGSDPTHLLQLPGSDSKIKIFEADLLDSDAISRAIDGCAGVFHVASPCTLDPPVDPEKELVEPAVKGTINVLEAAKRFNVRRVVITSSISALVPNPNWPEKVPVDESSWSDLDFCKSRQKWYPISKTLAEKAAWEFSEKHGTNIVTIHPSTCLGPLLQPNLNASCAVLLQLLQGSTETQEHHWLGVVHVKDVAKGHVMLFETPDASGRFLCTNGIYQFSEFAALVSKLFPEFAVHKFDKETQPGLTSCNDAAKRLIELGLVFTAVEDAVKETVQSLRDKGFL	failed
MKKLAIAISTILLSGAAYAGNTADVELFNADDNDVNIFQMSPAVGNDADVLIRNSDENEVDIYQMGRHNDAVVRVRNGSDDNDLMIDQDGRHNRAVLKARLGSDENDFAIEQDGRLNLGKVIADDSDNNNGLIDQRGRRNEAYINFDSASDNSNNKIVQRGRRNEGEISVMGGSNNGTLKIRQKGHDNDSKIHVYGGSGNEALTKINGDDNTTYTAFYAGASDNDTTILMKNDSLDNTVYAVVVGGSFNEADVTIDSSNDNFVSVAQWGDSSMAEVTLENGSNDNWIMINQTNNDMATVTADNSSYNAVVITQL	failed
MQRAAVFDVDGTLVDTNHLHVTTWWEAFRQAGHRVPMHAVHRAVGLASGDLVARLLGEDRDKEQDAELSAAHKALYGQYFDRLPALPGAGDLLRRLAADGWTVVLATSAGGSELGALRRAIDADDAIEATASADDVDAGKPAPEPVEHALELAGVPAERAVFVGDTVWDMRAGSRAGVRCVGVLCGGLPRADLEEAGAEAVYADPADLLASLRGSPLA	failed
MFSFNMFDHPIPRVFQNRFSTQYRCFSVSMLAGPNDRSDVEKGGKIIMPPSALDQLSRLNITYPMLFKLTNKNSDRMTHCGVLEFVADEGICYLPHWMMQNLLLEEGGLVQVESVNLQVATYSKFQPQSPDFLDITNPKAVLENALRNFACLTTGDVIAINYNEKIYELRVMETKPDKAVSIIECDMNVDFDAPLGYKEPERQVQHEESTEGEADHSGYAGELGFRAFSGSGNRLDGKKKGVEPSPSPIKPGDIKRGIPNYEFKLGKITFIRNSRPLVKKVEEDEAGGRFVAFSGEGQSLRKKGRKP	not failed
MLETSSHFLKSFRLKRYIGFLLISLALLITPFVRIDGAHLFLISFEHKQLHFLGKIFSAEELQVMPFMVILLFIGIFFITTSLGRVWCGWACPQTFLRVLYRDVIETKIFKLHKKISNKQESPKNTPSYKIRKVLSVLLFAPVVAGLMMLFFFYFIAPEDFFMYLKNPSDHPIAMGFWLFSTAVVLFDIVVVAERFCIYLCPYARVQSVLYDNDTLNPIYDEKRGGALYNNQGHLFPLPPKKRSPENECVNCLHCVQVCPTHIDIRKGLQLECINCLECVDACTITMAKFNRPSLIQWSSTNAINTRQKVHLVRLKTIAYMGVIAIVIALLAITSFKKERMLLDINRNSDLYELRSSGYVDNDYVFLFHNTDNKDHEFYFKVLGQKDIQIKKPLNPIAIKAGQKIKAVVILRKPLKSNATEYKNAKDALIPITIQAYSADDKNITIERESVFIAPSED	failed
MPQPDPQGFRRSLFLYRRAGMAEIGDFAVKFMIGIRSKRMITLPSLNNLPSKWDEIRHCLETRVFECGVMPYPNLTECEAGQFERDFWDNIGCAPEEYVRIRRAIRLLELRYPDSLNELVCAAIATPLGEMLAVFGVKGLCLLEFVGQKYLEQEIAAVQKALRGRFVFREDGRMQFLRQELDLYFKGHLKTFATPLEQIGTEFQKQAWDALLAIPYGETRSYKEQAQRLGNPKAVRAVAAANGQNKVSVMIPCHRVIGSDGKLTGYAGGLNRKQFLLALERGEVQTALF	failed
MPFSWLKPIDYARIFVGWASIFIIPLITLPSIIELALIVAVILFCAFGVVKMAERLAHILGDPFGSLILTLSIVIIEVILICAVMLGPADSTTAGRDSVMAVSMIIMGLVVGLCLLIGGLRHGSMPHNGVGTPTYLVLIATFSVIAFAVPAFRGEYSTGQALVISTLTAVVYGFFLFRQMGAQAGEFQEVEVAEKADDAAKWEVPFRGLILIITVLPIVLLSHDMATVMDEVLASLGAPVAMAGLIIATIVFLPETITSLKAAWTGEIQRVSNLAHGAQVSTVGLTIPAVLVIGVITGQDVVLGETPINLLLLGTTIAVTAIAFSSKKVSAVHGSVLLMLFGVYMMSMFA	failed
MFRGVAPPPERSSTPLPPTMTTTPEPGAALLLLIVSQLPGIGPSRARALLNRFGATPALLEADYDALRQIPGIGETTARETAERLANPAWRDKAREKGENQLARAERLEASVITILDPAYPPLLKEIYDPPLLLFARGNPEALCVPSLAVVGTRKATAYGKQATEFICREMVNNGYAILSGLAYGIDMMAHRAAVESNGVTIAVLGCGIDRIYTDPAGRLWPRILERGAIVSEEWIGIKPEPGNFPRRNRLIAGLAQGTLIVESDIKGGSMITASYALEQNREVFAIPGSIFSGTSRGTNYLIQQNHAKPVFSAEDILAELNPAQHPALKTHPEASEPFDLNIEESCIVEALQSGAMHIDLIAEKTGLKIDALLVHLFELELKRIIEQEPGQIFRKRTP	failed
MSDPGFEYAPIGLVELENRVIRRCNLHFASMFGGQESEYRDMPLLRLYPSHEDFERIGKRGLQVMRETGYYTDERIMRRRDGDLFWCRARGKSLTPDDPFRHGIWSFADISEERRVVELTPREREVALLTCRGLSAKEVGVELGLSYRTIEAHRARLLQKFGARKLPELVAKLSGMPL	failed
MKQNQQNKKSFEVQLTQLFLFTSLPLFFLLIGVMIYANISLYLILLTMLISSLVIVYSHSKLHQKSAYQFRSLSNLLDAMVQGDYSLRARISDGDEALNELVDSINSLSLRLNKQRIETTESQLLLTTVINHIDVAILALNENNELVLTNPAAKKLLQIPAEQQEFDLIESFSQFSQIAAMNSGNSQVMSLYFANQQGKFNVHLEEYRENGKPQKLVFITDVSTMLRSEERNAWQALVRVISHEINNSLSPIASISQSLRRLLARQEKLENHKEYLVEGLSIISQRSNSLTEFVNSYKQIASLPEPKKQPSSVLELVNKTVALYPDECIEVQNIDDITLVLDAVQFEQVLINLVKNAVEAVKSAGEAGKVAISGQVNGKVFSLSLADDGTGVSNLENLFVPFYSTKSKGSGIGLVLCRQIIEAHGGKITLTNRLGVSGCIATIELPL	failed
MSLSSLLIIFSSSFMALFPVINPLGNGFVVNGFFADLDPSQRKTAIQKLTINFIMIGVGTLLIGHLFLLIFGLAIPVIQLGGGILICKTAIELLGDSNSSDKEGTSQNVDSFKWKSIEQKIFYPITFPISIGPGSISVIFTLMASASVKGKLLHTGINYLVIALVIICMAGILYVFLSQGQRIIQKLGPVGNQIINKLVAFFTFCIGIQISVTGISQIFHLNIL	failed
MPTFLAALLTGLFNLCKSKLGYFVATAFVWLGINWGSYHFVISPLVEQLYTYVDSVGTAGGRFGELALRALGLLNFDRALTMIISAYVSRFAMLNGRLYLFKRGYGVAPPASPKHEPFIPPAG	failed
